For 5 molecules, binding result, Kd and binding signal results are on record in publication PMC7145699, “Structural insights into target DNA recognition by R2R3-MYB transcription factors”.

Where only a bound is given, the exact number is not on record here.

Holding throughout (assay): ITC; ITC: 150 mM NaCl, 20 mM HEPES pH 7.5, 25 C, 400 uM protein into 20 uM DNA; EMSA: 150 mM NaCl, 20 mM Tris-HCl pH 8.0, on ice 1 h, 0.1 uM DNA, 6% native PAGE 0.5x TBE
What all share (settings): protein: recombinant; tags: 6xHis-SUMO removed by Ulp1; blunt

The target in one data set is T1, WER L59A (Arabidopsis, UniProt Q9SEI0 12-130, L59A).
T1 sequence: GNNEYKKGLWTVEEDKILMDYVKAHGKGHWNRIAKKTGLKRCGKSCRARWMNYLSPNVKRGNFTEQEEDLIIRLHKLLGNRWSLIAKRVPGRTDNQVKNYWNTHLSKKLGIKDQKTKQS

The target in data set [1] is T2, WER L59E (Arabidopsis, UniProt Q9SEI0 12-130, L59E).
T2 sequence: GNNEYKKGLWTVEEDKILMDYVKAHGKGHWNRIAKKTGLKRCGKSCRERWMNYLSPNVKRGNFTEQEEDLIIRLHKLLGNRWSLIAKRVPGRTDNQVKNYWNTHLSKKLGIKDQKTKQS

Another data set deals with T3, WER K55A (Arabidopsis, UniProt Q9SEI0 12-130, K55A).
T3 sequence: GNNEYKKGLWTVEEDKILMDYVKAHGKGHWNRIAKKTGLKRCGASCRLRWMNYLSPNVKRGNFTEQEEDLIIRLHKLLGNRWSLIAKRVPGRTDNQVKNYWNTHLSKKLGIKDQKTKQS

Data set [2] has as its target T2, WER L59E. This is another data set of the same source.

B1: G12:C11* (dsDNA)
DNA 1: AAATTCTCCAAGCGCATTTTC
DNA 2: GAAAATGCGCTTGGAGAATTT
On to B1, for which the binding result with WER L59A is reported as “binds”.

B2: T12:A11* (dsDNA)
DNA 1: AAATTCTCCAATCGCATTTTC
DNA 2: GAAAATGCGATTGGAGAATTT
For B2, in the data set with WER L59A, the binding result is given as “binds”.

B3: A12:T11* (dsDNA)
DNA 1: AAATTCTCCAAACGCATTTTC
DNA 2: GAAAATGCGTTTGGAGAATTT
B3: in the data set with WER L59A, the binding result is on record as “binds”.

B4: GL2 promoter WER target DNA (dsDNA)
DNA 1: AAATTCTCCAACCGCATTTTC
DNA 2: GAAAATGCGGTTGGAGAATTT
B4: the Kd in the data set with WER L59A was found to be 47 nM; with WER L59E [1] it was 47.8 nM. The binding signal with WER K55A was > 40 fold decrease in affinity vs WT.

B5: 5mC12 DNA (AA5mC) (dsDNA)
DNA 1: AAATTCTCCAACCGCATTTTC
DNA 2: GAAAATGCGGTTGGAGAATTT
modifications: 5mC at C12 of strand 1
With B5, the binding result with WER L59A is on record as “binds”. Further, in the data set with WER L59E [2], the binding signal is ~4 fold decrease in affinity vs N1.

As usually defined, the Kd is the equilibrium constant for the complex coming apart.
